Positions count from the first letter of the chain named.
T1: extracellular domain of human IL12Rb2 (amino acids 24-622 of hIL12Rb2, UniProt Q99665) (human, UniProt Q99665 24-622)
T1 construct: also called hIL12Rb2 ECD; hIL12Rb2-ECD
T1 sequence: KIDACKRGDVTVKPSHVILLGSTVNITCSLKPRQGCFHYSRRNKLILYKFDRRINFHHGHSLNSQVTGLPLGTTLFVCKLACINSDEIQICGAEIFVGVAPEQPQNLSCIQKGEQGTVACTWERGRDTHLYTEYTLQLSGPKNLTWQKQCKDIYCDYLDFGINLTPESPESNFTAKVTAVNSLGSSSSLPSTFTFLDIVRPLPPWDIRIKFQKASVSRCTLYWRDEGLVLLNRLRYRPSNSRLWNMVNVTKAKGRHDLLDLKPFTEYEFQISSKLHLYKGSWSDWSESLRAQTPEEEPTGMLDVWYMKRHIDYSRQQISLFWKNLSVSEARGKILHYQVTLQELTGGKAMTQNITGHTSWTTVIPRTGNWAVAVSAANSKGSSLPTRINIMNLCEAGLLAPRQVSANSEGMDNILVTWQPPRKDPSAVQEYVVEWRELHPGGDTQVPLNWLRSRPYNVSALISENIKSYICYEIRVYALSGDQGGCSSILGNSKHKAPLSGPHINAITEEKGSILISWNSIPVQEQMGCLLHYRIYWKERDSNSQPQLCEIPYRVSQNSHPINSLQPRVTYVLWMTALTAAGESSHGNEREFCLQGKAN

B1: VHH3 (VHH)
VHH: QVQLQESGGGSVQAGGSLRLSCTASGLTFDDVEMAWYRQGPGDDYDLVSSINTDSRVYYVDSVKDRFTISRDNAKNTLYLQMNNLKPEDTAVYYCAADPWGGDLRGYPNYWGQGTQVTVSS
notes: Camel VHH, tested as a periplasmic extract of a phage clone; also called anti-human IL12Rb2 VHH3; hIL12Rb2 VHH; not shown: HA/His tag encoded by the pMECS phagemid
B2: VHH7 (VHH)
VHH: QVQLQESGGGSVQAGGSLRLSCAASGVTYSRYCMGWFRQAPGLERERVATIYSRGIITYYTDSVKGRFTISQDSAKKTVYLQMNSLKPEDTAMYYCAATRETYGGSGDCDYESVYNYWAQGTQVTVSS
notes: Camel VHH, tested as a periplasmic extract of a phage clone; also called anti-human IL12Rb2 VHH7; hIL12Rb2 VHH; not shown: HA/His tag encoded by the pMECS phagemid
B3: VHH12 (VHH)
VHH: B2 VHH with S85M
notes: Camel VHH, tested as a periplasmic extract of a phage clone; also called anti-human IL12Rb2 VHH12; hIL12Rb2 VHH; not shown: HA/His tag encoded by the pMECS phagemid
B4: VHH14 (VHH)
VHH: B2 VHH with T50H, D110G
notes: Camel VHH, tested as a periplasmic extract of a phage clone; also called anti-human IL12Rb2 VHH14; hIL12Rb2 VHH; not shown: HA/His tag encoded by the pMECS phagemid
B5: VHH16 (VHH)
VHH: B2 VHH with T50H, D110S, Y117H
notes: Camel VHH, tested as a periplasmic extract of a phage clone; also called anti-human IL12Rb2 VHH16; hIL12Rb2 VHH; not shown: HA/His tag encoded by the pMECS phagemid
B6: VHH5 (VHH)
VHH: QVQLQESGGGLVQPGGSLKLSCAASGFTFSTYAMSWVRQAPGKEPEWISRISSGGGNTYYADAVKGRFAISRDNAKNTLYLQLNSLKTEDTAIYVCTMDDYYGGSWHPISRGHGTQVTVSS
notes: Camel VHH, tested as a periplasmic extract of a phage clone; also called anti-human IL12Rb2 VHH5; hIL12Rb2 VHH; not shown: HA/His tag encoded by the pMECS phagemid
B7: VHH2 (VHH)
VHH: QVQLQESGGGSVQAGGSLRLSCAASGFTISRYCMGWLRQAPGKQREGVAIIERDGRTGYADSVKGRFTISKDNAKNTLYLQMNSLKPEDTAMYYCGAIEGSCRPDFGYRGQGTQVTVSS
notes: Camel VHH, tested as a periplasmic extract of a phage clone; also called anti-human IL12Rb2 VHH2; hIL12Rb2 VHH; not shown: HA/His tag encoded by the pMECS phagemid
B8: VHH10 (VHH)
VHH: B7 VHH with I29V, S30T
notes: Camel VHH, tested as a periplasmic extract of a phage clone; also called anti-human IL12Rb2 VHH10; hIL12Rb2 VHH; not shown: HA/His tag encoded by the pMECS phagemid
B9: VHH17 (VHH)
VHH: B7 VHH with F27L
notes: Camel VHH, tested as a periplasmic extract of a phage clone; also called anti-human IL12Rb2 VHH17; hIL12Rb2 VHH; not shown: HA/His tag encoded by the pMECS phagemid
B10: VHH11 (VHH)
VHH: B7 VHH with I29V, N73D
notes: Camel VHH, tested as a periplasmic extract of a phage clone; also called anti-human IL12Rb2 VHH11; hIL12Rb2 VHH; not shown: HA/His tag encoded by the pMECS phagemid
B11: VHH8 (VHH)
VHH: B7 VHH with I29V, D54E
notes: Camel VHH, tested as a periplasmic extract of a phage clone; also called anti-human IL12Rb2 VHH8; hIL12Rb2 VHH; not shown: HA/His tag encoded by the pMECS phagemid
B12: VHH4 (VHH)
VHH: B7 VHH with A23V, E88G
notes: Camel VHH, tested as a periplasmic extract of a phage clone; also called anti-human IL12Rb2 VHH4; hIL12Rb2 VHH; not shown: HA/His tag encoded by the pMECS phagemid
B13: VHH9 (VHH)
VHH: B7 VHH with Y94F
notes: Camel VHH, tested as a periplasmic extract of a phage clone; also called anti-human IL12Rb2 VHH9; hIL12Rb2 VHH; not shown: HA/His tag encoded by the pMECS phagemid
B14: VHH13 (VHH)
VHH: B7 VHH with R31K
notes: Camel VHH, tested as a periplasmic extract of a phage clone; also called anti-human IL12Rb2 VHH13; hIL12Rb2 VHH; not shown: HA/His tag encoded by the pMECS phagemid
B15: VHH1 (VHH)
VHH: B7 VHH with I29V, S30T
notes: Camel VHH, tested as a periplasmic extract of a phage clone; also called anti-human IL12Rb2 VHH1; hIL12Rb2 VHH; not shown: HA/His tag encoded by the pMECS phagemid
B16: VHH6 (VHH)
VHH: QVQLQESGGGLVQAGGSLRLSCQASGYTYGLFCMGWFRQVSGKKREGVAVVDSPGGRHVADSLKGRFTISKDNANNILYLDMTNLKSEDTATYYCAADPEKYCFLFSDAGYQYWGQGTQVTVSS
notes: Camel VHH, tested as a periplasmic extract of a phage clone; also called anti-human IL12Rb2 VHH6; hIL12Rb2 VHH; not shown: HA/His tag encoded by the pMECS phagemid

What follows are binders tested against T1, extracellular domain of human IL12Rb2 … (assay: periplasmic extract ELISA on antigen-coated plate; positive if A450 at least threefold over PBS-coated control).
Protocol: Upon completion of the biopanning of Example 3, three 96-well plates of individual phage clones were isolated in order to perform periplasmic extract ELISA (PE-ELISA) on IL12Rb2 coated plates to identify positive VHH binders that selectively bound IL12Rb2. A 96-well plate was coated with IL12Rb2 and PBS under the same conditions. Next, wells were blocked at 37° C. for 1 h. Then, 100 μl of extracted antibodies was added to each well and incubated for 1 h. Subsequently, 100 μl of anti-tag polyclonal antibody conjugated to HRP was added to each well and incubated at 37° C. for 1 h. Plates were developed with TMB substrate. The reaction was stopped by the addition of H2SO4. Absorbance at 450 nm was read on a microtiter plate reader. Antibodies with absorbance of the antigen-coated well at least threefold greater than PBS-coated control are VHHs that specifically bind to IL 12Rb2. Positive clones were sequenced, and sequences analyzed to identify unique clonotypes

Binder	binding result
B1	binds
B2	binds
B3	binds
B4	binds
B5	binds
B6	binds
B7	binds
B8	binds
B9	binds
B10	binds
B11	binds
B12	binds
B13	binds
B14	binds
B15	binds
B16	binds

Reference: US20230357414A1 (SYNTHEKINE, published 2023)
